Experimental data: patent US10379127B2, “Marker of cell death” (priority 2013, dated 2019)

Legend:
Jurkat cells [1] = assay: Relative proportions of live, apoptotic and dead Jurkat cells challenged with staurosporine (Sytox Red and MAb2C4:AF568 staining); format: cell-based; details: 2×10^−7M, 5×10^−7M and 10×10^−7M for 40 hours, FIG. 10
Experimental: Analysis of relative proportions of live, apoptotic and dead Jurkat cells challenged with 2×10^−7M, 5×10^−7M and 10×10^−7M staurosporine for 40 hours.

Jurkat cells [2] = assay: FACS analysis of Jurkat cells induced to undergo Programmed Cell Death, live-stained with antibody:fluorophore conjugate; format: cell-based
Experimental: FIG. 6. Scatter plots from FACS analysis of Jurkat cells treated with the cytotoxin staurosporine (5×10^-7M) for 40 hours to induce Programmed Cell Death including apoptosis and finally cell death (necrosis). The populations of live, apoptotic and dead cells were live-stained with 1 μg/mL MAb2C4:AF568 and/or annexin V:AF488 and the fluorescence intensity (FI) of each shown on the ordinate and abscissa respectively. A: Cell populations stained with MAb2C4:AF568 alone; B: Cell populations stained with MAb2C4:AF568 plus annexin V:AF488; C: Cell populations stained with annexin V:AF488 alone; D: Cell populations stained with MAbFLAG:AF568 plus annexin V:AF488; E: No additions.
FIG. 7. Histograms from FACS analysis of Jurkat cells induced to undergo Programmed Cell Death [PCD] (as for FIG. 6). Shown are overlaid curves representative of live, apoptotic and necrotic (dead) cell populations [A, B & C]. In D these curves are aligned for ease of comparison.
FIG. 8. Overlaid scatter plots showing increasing FI of apoptotic and dead Jurkat populations stained with MAb2C4:AF568 compared to the MAbFLAG:AF568 isotype control.
FIG. 9. Scatter plots showing FI with MAb2C4:AF568 (abscissa) and/or Sytox Red (ordinate). A: Sytox Red alone; B: Increased FI of apoptotic, transition and dead (necrotic) cell populations stained with MAb2C4:AF568; C: Overlaid dot plots of A & B.
MAb2C4 is a mouse anti-human CTR antibody (IgG1) that binds an extracellular epitope and has been conjugated with AlexaFluor 568 (MAb2C4:AF568). […] MAb2C4:AF568 was validated using cell lines expressing human calcitonin receptor (hCTR).
MAbFLAG:AF568 is an IgG1 isotype control. This conjugate was validated using a stable transfectant HEK293 cell line that expresses the PA receptor tagged with a FLAG epitope sequence. The FLAG epitope is positioned on the cell surface. Annexin V:AF488 binds the plasma membrane of dying (apoptotic) and dead (necrotic) cells.

Molecule | proportion of live cells (Jurkat cells [1]) | proportion of apoptotic and dead cell populations (Jurkat cells [1]; Sytox Red and MAb2C4:AF568 staining) | binding to apoptotic and dead cells (Jurkat cells [2]; Example 5 summary statement) | FI (red channel) of apoptotic and dead cell populations, histograms (Jurkat cells [2]; Jurkat cells induced to undergo PCD as for FIG. 6, compared to MAbFLAG:AF568 isotype control, FIG. 7) | fluorescence intensity (FI), scatter plots (Jurkat cells [2]; Jurkat cells, staurosporine 5×10^-7M for 40 hours, live-stained 1 μg/mL, with or without annexin V:AF488, FIG. 6) | FI of apoptotic and dead Jurkat populations, overlaid scatter plots (Jurkat cells [2]; compared to MAbFLAG:AF568 isotype control, FIG. 8) | FI of apoptotic, transition and dead (necrotic) cell populations (Jurkat cells [2]; scatter plots with Sytox Red on the ordinate, FIG. 9)
CN[C@@H]1C[C@H]2O[C@@](C)([C@@H]1OC)n1c3ccccc3c3c4c(c5c6ccccc6n2c5c31)C(=O)NC4 [staurosporine] | decreases with increasing concentrations | increases | – | – | – | – | –
MAb2C4:AF568: mouse anti-human CTR antibody (IgG1) that binds an extracellular epitope, conjugated with AlexaFluor 568 (conjugate) VH: QVHLQQSGAELARPGASVRLSCEASGYTFTKYWMQWIKQRPGQGLEWIGAIYPGDGDSRYTPKFKGKATLTADKSSGTAYIQLSSLASEDSAVYYCARGDGTYWGQGTLVTVSA VL: DIQMTQSPASLSASVGETVTITCRASENIYSYLAWYQQKQGKSPQLLVYKAKTLEEGVPSRFSGSGSGTQFSLKINSLQPEDFGSYYCQHHYGTPRTFGGGTKLEIK | – | – | binds apoptotic cells and is accumulated into dead cells | increase in FI | increased FI | increasing FI | Increased FI
